From PMC3712923

What was measured:
β-lactamase-SBP fusion = assay: SPR; BIAcoreX; purified β-lactamase-SBP amine-coupled to a CM5 chip, streptavidin variant as analyte; blank flow cell as reference
wild-type streptavidin [1] = biological target: wild-type streptavidin (UniProt P22629); assay: affinity column chromatography; streptavidin variant coupled to Affi-gel 15; culture supernatant with β-lactamase-SBP loaded at 20% of the theoretical column binding capacity (non-overloaded); PBS wash, elution with 5 mM d-biotin
[2] = biological target: SAVSBPM18 engineered streptavidin (S27A, G48T) (UniProt P22629); assay: as above
wild-type streptavidin [3] = biological target: wild-type streptavidin (UniProt P22629); assay: affinity column chromatography; streptavidin variant coupled to Affi-gel 15; culture supernatant with β-lactamase-SBP loaded at 142-150% of the theoretical column binding capacity (overloaded); leakage during washing; pure wash fractions pooled with the elution fractions
[4] = biological target: SAVSBPM18 engineered streptavidin (S27A, G48T) (UniProt P22629); assay: as above
[5] = biological target: SAVSBPM18 engineered streptavidin (S27A, G48T) (UniProt P22629); assay: as above; remark: listed apart in the source

Sequence of SAVSBPM18 engineered streptavidin (S27A, G48T) (P22629 25-183 S51A/G72T): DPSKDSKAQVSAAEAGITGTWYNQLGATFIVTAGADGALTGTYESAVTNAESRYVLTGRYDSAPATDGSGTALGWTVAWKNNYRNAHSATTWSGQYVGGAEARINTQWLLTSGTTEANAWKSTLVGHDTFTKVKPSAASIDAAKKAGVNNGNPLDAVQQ
Sequence of wild-type streptavidin (from UniProt P22629 25-183) (natural protein) (P22629 25-183): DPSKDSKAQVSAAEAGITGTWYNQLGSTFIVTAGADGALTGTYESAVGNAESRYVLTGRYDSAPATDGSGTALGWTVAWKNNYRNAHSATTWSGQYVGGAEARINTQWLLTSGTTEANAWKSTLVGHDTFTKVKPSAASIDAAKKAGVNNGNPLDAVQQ
Sequence of wild-type streptavidin (UniProt P22629) (P22629 25-183): as above

Substance	Kd (β-lactamase-SBP fusion)	koff (β-lactamase-SBP fusion)	kon (β-lactamase-SBP fusion)	percent recovery (wild-type streptavidin [1])	percent recovery [2]	percent recovery (wild-type streptavidin [3])	percent recovery [4]	percent recovery [5]
wild-type streptavidin (from UniProt P22629 25-183) (natural protein)	8.59 nM	0.000816 s⁻¹	95000 M⁻¹ s⁻¹	–	–	–	–	–
β-lactamase-SBP fusion	–	–	–	90%	91%	51%	58%	51%
SAVSBPM18 engineered streptavidin (S27A, G48T) (from UniProt P22629 25-183) (designed binder)	15.7 nM	0.000711 s⁻¹	45300 M⁻¹ s⁻¹	–	–	–	–	–
